# Data published in paper PMC2831308.
# Test system: carboxyltransferase (CT) alpha2beta2, wild-type (Escherichia coli)
# Experiment: EMSA
sequence,measurement,value
"CT alpha transcript, 213 nt upstream of AUG to gene end",Kd,145 nM
